Reference: article PMC11039405

Target: T1, AmrZ (Pseudomonas aeruginosa PAO1) (UniProt G3XCY4)
T1 sequence: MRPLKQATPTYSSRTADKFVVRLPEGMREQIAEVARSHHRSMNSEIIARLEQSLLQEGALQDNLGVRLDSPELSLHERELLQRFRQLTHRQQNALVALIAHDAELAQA
Experiment: EMSA

GTTATCTGCTTTCGGCCAAGAGATTTGGCTCCTTGCATATTATAAGAACCCCAACACTTCCCGTCGTACCTTGAATGCCCCGCCTAGCGGAGAGGCATGAATACGCTCCGTTTTATTGATTTTCAAAGCCATGAGCACGGAGTCGATTTTATAATAATCAGGATTATCCGACGTGCGCTGA (double strand) [exsA promoter]
binding: no binding
